Results on 1 molecule are retold here after patent CN108822212A (UNIV BEIJING, dated 2018).

The target of experiment [1] is 全长KIT WT (Ba/F3稳定细胞系表面) (human) (UniProt P10721). Put plainly: cell-based or functional assay.
The target of experiment [2] is 全长KIT ITD (Ba/F3稳定细胞系表面) (human) (UniProt P10721). Put plainly: cell-based or functional assay.
The target in the next experiment is T1, KIT WT D4-5蛋白 (human, UniProt P10721 309-519, limits assumed).
T1 construct: domain: 第4、5个Ig结构域 (D4-5); Expressed in HEK293 cells by BacMam; also called KIT WT的第4、5个结构域
Put plainly: SPR, Biacore T200, 3G2 amine-coupled on CM5, KIT WT D4-5 as analyte (3.125-100 nM). In general terms: SPR reads the build-up and loss of mass on a sensor chip optically.

In a further experiment the target is T2, KIT ITD D4-5蛋白 (human, UniProt P10721 309-519).
T2 chain: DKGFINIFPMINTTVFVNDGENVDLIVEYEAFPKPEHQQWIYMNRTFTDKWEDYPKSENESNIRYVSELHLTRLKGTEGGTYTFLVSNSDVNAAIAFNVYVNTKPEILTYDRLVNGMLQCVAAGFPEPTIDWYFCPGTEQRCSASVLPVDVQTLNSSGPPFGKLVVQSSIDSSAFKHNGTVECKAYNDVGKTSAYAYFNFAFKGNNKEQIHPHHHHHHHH
As to the kind of experiment: SPR, Biacore T200, 3G2 amine-coupled on CM5, KIT ITD D4-5 as analyte (3.125-100 nM).

B1: 单克隆抗体3G2 (antibody, V domains shown)
VH: EVQLQESGPGLVKPSQSLSLTCTVAGYSITSDYAWNWIRQFPGNRLEWVGYISYSGSTSYNPSLKSRISITRDTSQNQFFLQLNSVTTEDTATYYCTRWRYRYTLAMDYWGQGTSVTVSS
VL: DIVLTQSPAITAASLGQKVTITCSASSSISYIHWYQQKSGTSPKPWIYEIYKLASGVPPRFSGSGSGTSYSLTISSMEAEDAAIYYCQQWNYPFTFGSGTKLEIKR
notes: also called 3G2抗体; not shown: hinge and Fc of the mouse hybridoma antibody
For the molecule B1, the percent apoptosis of KIT WT Ba/F3 cells with 3G2 in experiment [1] came to 10.9%. In experiment [2], this molecule came in with an IC50 of cell survival (CCK8) of KIT ITD Ba/F3 cells of 1.29 nM, a percent of KIT ITD Ba/F3 cells in early apoptosis at 10 nM 3G2 of 41%, a percent of KIT ITD Ba/F3 cells in late apoptosis at 10 nM 3G2 of 14.5% and a percent of KIT ITD Ba/F3 cells in programmed apoptosis at 10 nM 3G2 (Annexin V-FITC/7-AAD) of 55.5%. Besides, the Kd (as a rule, a measure of binding affinity in units of concentration) in the experiment with KIT WT D4-5蛋白 came out at 154 nM. The molecule further had a Kd in the experiment with KIT ITD D4-5蛋白 of 17.1 nM.
